Laboratory results as given in patent US20250262210A1 (TRUSTEES OF COLUMBIA UNIVERSITY IN THE CITY OF NEW YORK, published 2025).

Legend:
Test in all cases: IP/MS, LZTR1 wild type-FLAG, U87
[1] = molecular target: ASXL1 (human, UniProt Q8IXJ9 1-1541, limits assumed)
Method in brief: (§1)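 Extracted peptides in 3% acetonitrile/0.1% formic acid ran on a 50 cm C18 column into an Orbitrap Fusion, with MaxQuant identification and spectral counting.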

[2] = molecular target: ARHGAP31 (human, UniProt Q2M1Z3 1-1444)
Method in brief: as §1

[3] = molecular target: T1, LONP2 (human, UniProt Q86WA8 2-852, limits assumed)
T1 sequence (looked up): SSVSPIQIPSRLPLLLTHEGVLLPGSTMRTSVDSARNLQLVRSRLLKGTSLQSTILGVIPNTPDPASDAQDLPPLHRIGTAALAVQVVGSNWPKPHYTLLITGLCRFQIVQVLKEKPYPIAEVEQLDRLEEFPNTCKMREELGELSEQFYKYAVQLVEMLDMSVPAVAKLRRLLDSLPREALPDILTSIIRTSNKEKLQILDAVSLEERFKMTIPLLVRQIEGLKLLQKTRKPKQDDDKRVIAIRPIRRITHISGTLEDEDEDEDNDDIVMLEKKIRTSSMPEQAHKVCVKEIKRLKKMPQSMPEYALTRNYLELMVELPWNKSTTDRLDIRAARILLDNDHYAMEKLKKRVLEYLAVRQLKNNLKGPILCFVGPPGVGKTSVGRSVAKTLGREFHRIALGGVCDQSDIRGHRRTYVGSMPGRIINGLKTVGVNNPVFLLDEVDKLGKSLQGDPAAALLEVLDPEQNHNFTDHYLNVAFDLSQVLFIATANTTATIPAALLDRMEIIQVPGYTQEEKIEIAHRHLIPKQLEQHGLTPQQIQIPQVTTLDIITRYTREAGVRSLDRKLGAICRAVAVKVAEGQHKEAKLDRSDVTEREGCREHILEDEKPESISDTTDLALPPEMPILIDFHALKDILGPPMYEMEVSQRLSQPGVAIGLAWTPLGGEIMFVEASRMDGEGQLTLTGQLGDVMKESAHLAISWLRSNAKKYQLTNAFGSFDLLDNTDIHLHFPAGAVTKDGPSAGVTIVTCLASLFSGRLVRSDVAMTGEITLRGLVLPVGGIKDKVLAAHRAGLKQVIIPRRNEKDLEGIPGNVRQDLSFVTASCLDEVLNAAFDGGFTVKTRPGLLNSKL
Method in brief: as §1

[4] = molecular target: EPG5 (human, UniProt Q9HCE0 1-2579, limits assumed)
Method in brief: as §1

[5] = molecular target: T2, FHOD1 (human, UniProt Q9Y613 2-1164)
T2 sequence (looked up): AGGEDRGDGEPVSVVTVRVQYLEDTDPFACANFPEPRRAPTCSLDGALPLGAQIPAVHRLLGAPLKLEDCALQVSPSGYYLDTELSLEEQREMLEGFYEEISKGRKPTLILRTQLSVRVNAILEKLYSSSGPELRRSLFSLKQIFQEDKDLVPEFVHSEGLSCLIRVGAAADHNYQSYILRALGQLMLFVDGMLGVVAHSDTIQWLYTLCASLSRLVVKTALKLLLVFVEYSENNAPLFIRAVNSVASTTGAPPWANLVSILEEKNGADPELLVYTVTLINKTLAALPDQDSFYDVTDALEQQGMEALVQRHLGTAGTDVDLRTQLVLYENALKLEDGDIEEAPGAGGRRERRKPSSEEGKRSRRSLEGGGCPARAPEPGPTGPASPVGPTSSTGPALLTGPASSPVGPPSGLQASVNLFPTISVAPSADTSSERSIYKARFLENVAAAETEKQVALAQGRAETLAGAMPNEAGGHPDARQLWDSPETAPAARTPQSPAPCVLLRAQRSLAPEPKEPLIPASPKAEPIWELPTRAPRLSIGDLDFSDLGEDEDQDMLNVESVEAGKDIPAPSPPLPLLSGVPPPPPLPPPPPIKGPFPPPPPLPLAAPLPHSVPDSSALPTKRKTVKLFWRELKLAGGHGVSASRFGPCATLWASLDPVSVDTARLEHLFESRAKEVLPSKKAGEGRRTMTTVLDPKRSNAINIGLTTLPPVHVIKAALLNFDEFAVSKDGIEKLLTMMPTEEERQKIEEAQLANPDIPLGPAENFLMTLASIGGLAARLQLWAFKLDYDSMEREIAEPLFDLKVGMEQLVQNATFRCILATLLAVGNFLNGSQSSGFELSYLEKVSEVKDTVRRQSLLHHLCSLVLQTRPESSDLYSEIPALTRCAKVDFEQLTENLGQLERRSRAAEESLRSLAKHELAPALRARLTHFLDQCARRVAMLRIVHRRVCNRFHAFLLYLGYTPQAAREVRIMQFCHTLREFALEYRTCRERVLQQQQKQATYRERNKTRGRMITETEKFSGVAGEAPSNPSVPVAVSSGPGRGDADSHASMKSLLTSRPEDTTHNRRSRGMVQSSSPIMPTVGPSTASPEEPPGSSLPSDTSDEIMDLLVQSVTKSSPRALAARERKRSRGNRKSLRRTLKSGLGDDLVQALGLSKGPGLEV
Method in brief: as §1

[6] = molecular target: HELZ (human, UniProt P42694 1-1942, limits assumed)
Method in brief: as §1

Measured: binding result

Chain of ASXL1 (Q8IXJ9 whole entry, the tested form may be a part): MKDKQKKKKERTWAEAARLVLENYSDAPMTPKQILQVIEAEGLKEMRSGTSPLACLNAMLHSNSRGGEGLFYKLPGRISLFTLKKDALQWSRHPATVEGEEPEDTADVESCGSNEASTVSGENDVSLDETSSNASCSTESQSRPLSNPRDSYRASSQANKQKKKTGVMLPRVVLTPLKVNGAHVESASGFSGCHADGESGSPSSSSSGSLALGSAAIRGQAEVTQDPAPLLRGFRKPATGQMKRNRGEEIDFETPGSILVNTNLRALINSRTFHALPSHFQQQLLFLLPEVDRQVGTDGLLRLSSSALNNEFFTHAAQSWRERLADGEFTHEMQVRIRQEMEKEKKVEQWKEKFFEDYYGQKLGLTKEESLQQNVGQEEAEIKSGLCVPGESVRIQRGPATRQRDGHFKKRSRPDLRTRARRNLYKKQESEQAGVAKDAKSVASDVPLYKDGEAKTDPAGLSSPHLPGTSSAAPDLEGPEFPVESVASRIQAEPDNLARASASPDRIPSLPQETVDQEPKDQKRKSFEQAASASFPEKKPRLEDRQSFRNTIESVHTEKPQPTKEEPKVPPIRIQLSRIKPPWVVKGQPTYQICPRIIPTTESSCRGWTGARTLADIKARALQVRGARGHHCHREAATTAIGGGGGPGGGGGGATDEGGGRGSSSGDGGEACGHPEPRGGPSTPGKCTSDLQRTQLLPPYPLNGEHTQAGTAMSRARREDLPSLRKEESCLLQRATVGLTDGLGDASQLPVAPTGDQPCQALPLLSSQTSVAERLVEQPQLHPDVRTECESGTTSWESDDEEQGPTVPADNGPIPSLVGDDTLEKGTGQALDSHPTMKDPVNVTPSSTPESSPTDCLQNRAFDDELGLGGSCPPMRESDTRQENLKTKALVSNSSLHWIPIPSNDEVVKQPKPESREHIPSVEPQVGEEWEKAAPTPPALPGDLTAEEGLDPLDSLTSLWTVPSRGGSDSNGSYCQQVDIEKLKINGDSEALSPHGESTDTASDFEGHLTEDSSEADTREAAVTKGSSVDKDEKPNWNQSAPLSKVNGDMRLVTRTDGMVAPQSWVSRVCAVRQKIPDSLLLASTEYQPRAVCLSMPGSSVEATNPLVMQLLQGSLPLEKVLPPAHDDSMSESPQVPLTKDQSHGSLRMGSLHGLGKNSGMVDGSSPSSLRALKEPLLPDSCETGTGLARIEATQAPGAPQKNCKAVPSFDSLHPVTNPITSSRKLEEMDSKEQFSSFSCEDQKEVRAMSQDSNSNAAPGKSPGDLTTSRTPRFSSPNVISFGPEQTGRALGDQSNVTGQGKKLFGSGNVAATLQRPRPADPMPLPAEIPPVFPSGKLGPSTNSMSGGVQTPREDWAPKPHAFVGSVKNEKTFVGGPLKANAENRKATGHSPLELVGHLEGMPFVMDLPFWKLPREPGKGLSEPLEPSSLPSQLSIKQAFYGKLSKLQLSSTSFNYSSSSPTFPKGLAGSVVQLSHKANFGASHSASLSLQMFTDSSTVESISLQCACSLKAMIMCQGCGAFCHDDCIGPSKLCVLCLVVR
Chain of EPG5 (Q9HCE0 whole entry): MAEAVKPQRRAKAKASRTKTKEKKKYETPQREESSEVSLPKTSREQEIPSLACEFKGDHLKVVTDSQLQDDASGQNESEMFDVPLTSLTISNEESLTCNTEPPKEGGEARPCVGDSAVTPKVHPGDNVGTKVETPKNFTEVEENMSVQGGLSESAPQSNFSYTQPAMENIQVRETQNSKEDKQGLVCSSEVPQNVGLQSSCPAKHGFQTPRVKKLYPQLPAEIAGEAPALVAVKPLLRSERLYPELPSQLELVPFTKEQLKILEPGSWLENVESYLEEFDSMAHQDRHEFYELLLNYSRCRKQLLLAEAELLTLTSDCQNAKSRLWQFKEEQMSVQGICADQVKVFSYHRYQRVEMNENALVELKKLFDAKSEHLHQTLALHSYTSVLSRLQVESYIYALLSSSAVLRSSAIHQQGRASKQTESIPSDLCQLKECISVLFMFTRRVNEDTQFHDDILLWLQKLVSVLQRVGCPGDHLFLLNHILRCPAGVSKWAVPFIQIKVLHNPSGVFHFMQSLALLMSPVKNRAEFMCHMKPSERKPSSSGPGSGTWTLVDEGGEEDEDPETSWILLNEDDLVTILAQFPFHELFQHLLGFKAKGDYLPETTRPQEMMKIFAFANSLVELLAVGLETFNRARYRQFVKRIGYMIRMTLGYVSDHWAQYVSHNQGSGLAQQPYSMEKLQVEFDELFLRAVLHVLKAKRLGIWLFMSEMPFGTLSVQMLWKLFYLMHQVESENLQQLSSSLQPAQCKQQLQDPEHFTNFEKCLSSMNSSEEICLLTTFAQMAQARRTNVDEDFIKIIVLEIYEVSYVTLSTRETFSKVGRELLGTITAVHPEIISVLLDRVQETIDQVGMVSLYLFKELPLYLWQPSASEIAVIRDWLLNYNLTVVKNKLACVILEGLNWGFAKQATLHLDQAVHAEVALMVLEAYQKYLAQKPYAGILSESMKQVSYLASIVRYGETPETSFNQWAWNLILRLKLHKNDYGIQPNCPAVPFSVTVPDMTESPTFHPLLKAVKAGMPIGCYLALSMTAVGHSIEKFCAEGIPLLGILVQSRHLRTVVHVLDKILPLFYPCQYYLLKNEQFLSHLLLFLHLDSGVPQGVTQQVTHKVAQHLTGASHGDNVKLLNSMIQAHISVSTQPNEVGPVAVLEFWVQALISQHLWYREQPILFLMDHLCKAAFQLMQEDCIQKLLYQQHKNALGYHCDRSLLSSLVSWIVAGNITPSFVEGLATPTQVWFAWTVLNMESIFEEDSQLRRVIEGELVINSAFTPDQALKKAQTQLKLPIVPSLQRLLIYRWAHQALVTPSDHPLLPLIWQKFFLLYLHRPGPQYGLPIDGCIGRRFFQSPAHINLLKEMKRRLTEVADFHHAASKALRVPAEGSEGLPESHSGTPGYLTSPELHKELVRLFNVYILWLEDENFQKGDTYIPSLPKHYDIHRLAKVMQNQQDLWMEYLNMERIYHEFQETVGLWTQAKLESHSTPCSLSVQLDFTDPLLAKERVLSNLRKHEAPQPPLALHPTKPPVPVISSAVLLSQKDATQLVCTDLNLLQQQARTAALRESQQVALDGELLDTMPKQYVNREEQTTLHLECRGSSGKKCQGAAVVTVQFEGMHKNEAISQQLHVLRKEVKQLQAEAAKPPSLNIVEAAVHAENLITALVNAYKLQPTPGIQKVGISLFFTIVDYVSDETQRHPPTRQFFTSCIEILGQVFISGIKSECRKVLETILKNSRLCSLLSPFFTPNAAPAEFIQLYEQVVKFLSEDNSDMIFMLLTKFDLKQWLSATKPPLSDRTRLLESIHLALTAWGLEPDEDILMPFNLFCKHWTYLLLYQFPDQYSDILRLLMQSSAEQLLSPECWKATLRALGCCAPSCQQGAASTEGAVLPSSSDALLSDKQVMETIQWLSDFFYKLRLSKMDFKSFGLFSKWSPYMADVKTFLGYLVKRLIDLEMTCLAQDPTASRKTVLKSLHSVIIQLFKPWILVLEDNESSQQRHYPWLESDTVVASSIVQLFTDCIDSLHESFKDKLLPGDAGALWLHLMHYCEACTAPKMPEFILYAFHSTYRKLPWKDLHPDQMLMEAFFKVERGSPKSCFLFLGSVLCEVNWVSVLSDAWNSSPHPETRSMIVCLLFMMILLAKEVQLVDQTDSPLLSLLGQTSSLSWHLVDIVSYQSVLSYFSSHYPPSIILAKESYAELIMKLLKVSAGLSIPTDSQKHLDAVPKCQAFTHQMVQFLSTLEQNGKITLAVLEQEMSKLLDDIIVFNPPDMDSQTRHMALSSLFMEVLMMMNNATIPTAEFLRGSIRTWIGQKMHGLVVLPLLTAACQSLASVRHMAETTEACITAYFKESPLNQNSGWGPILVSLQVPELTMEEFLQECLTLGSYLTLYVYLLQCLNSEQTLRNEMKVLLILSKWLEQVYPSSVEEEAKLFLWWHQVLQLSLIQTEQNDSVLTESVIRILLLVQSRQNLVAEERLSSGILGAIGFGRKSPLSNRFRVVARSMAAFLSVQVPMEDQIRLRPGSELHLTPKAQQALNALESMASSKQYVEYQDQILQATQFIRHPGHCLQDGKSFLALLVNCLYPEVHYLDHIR

B1: LZTR1-FLAG (other, human, UniProt Q8N653 1-840, looked up)
chain: MAGPGSTGGQIGAAALAGGARSKVAPSVDFDHSCSDSVEYLTLNFGPFETVHRWRRLPPCDEFVGARRSKHTVVAYKDAIYVFGGDNGKTMLNDLLRFDVKDCSWCRAFTTGTPPAPRYHHSAVVYGSSMFVFGGYTGDIYSNSNLKNKNDLFEYKFATGQWTEWKIEGRLPVARSAHGATVYSDKLWIFAGYDGNARLNDMWTIGLQDRELTCWEEVAQSGEIPPSCCNFPVAVCRDKMFVFSGQSGAKITNNLFQFEFKDKTWTRIPTEHLLRGSPPPPQRRYGHTMVAFDRHLYVFGGAADNTLPNELHCYDVDFQTWEVVQPSSDSEVGGAEVPERACASEEVPTLTYEERVGFKKSRDVFGLDFGTTSAKQPTQPASELPSGRLFHAAAVISDAMYIFGGTVDNNIRSGEMYRFQFSCYPKCTLHEDYGRLWESRQFCDVEFVLGEKEECVQGHVAIVTARSRWLRRKITQARERLAQKLEQEAAPVPREAPGVAAGGARPPLLHVAIREAEARPFEVLMQFLYTDKIKYPRKGHVEDVLLIMDVYKLALSFQLCRLEQLCRQYIEASVDLQNVLVVCESAARLQLSQLKEHCLNFVVKESHFNQVIMMKEFERLSSPLIVEIVRRKQQPPPRTPLDQPVDIGTSLIQDMKAYLEGAGAEFCDITLLLDGHPRPAHKAILAARSSYFEAMFRSFMPEDGQVNISIGEMVPSRQAFESMLRYIYYGEVNMPPEDSLYLFAAPYYYGFYNNRLQAYCKQNLEMNVTVQNVLQILEAADKTQALDMKRHCLHIIVHQFTKVSKLPTLRSLSQQLLLDIIDSLASHISDKQCAELGADI
notes: Expressed in HEK 293T, HeLa or U87 cells; used as cell lysate; also called LZTR1 wild type-FLAG; LZTR1 WT; not shown: FLAG tag at the C-terminus
binds: [1] | [2] | [3] | [4] | [5] | [6]
